Assay results published in the supplement of paper PMC10567573.

B1: ACSBG2 (parent)
chain: FAQADALKGTLVSTLKEVKPTVFI
B2: TRIM15 (parent)
chain: LSQMGAQSSGKILLCPLCQEEEQA

Variants of: B1
Assay: protein stability index of a GFP-peptide fusion (GPS, HEK-293T) (PSI 1-6); higher = more stable
Settings: c terminus: a fixed tail appended
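Also: lentivirally expressed fusions sorted by FACS into six bins by GFP to DsRed ratio, PSI derived from sequencing read proportions per bin multiplied by bin number.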

Protein stability index, by site and new letter:
T21: S 2.35; R 2; H 1.61; P 1.22; G 2.14; K 1.14; M 1.82; I 4.12; Y 1.64; N 1.92; W 3.06; V 4.03; Q 1.32
V22: T 2.77; S 2.05; Q 2.28; N 1.98; L 1.3; R 2.94; A 2.73; D 2.99; P 2.02; F 1.67; E 1.94; I 2.43; C 2.18; K 2.45; Y 1.67; H 1.92; G 2.25
F23: A 1.96; E 2.3; P 2.76; Y 2.32; S 2.16; D 2.62; N 1.69; I 1.65; Q 2.16; C 2.52; V 2.18; T 1.73; M 1.86; W 2.2; L 2.52; R 2.64; H 1.75; G 2.36; K 2.69
I24: W 1.26; F 4.5; C 2.92; L 1.05; G 2.08; N 3.24; S 2.27; P 2.27; M 1.16; V 1.83; A 1.98; T 2.36; Q 2.23; H 2.02; D 2.88; K 2.41

Variants of: B2
Assay: as above
Settings: c terminus: a fixed tail appended

Protein stability index, by site and new letter:
G10: N 4.54; M 3.83; E 3.89; R 3.22; C 3.86; F 2.74; P 3.78; Q 3.58; V 3.19; S 3.79; I 2.5; K 3.71; W 2.55; D 4.3; H 3.71; L 2.53; Y 2.83; T 3.71
L14: Y 4.23; N 3.56; V 2.99; T 4.66; I 3.91; S 4.72; D 4.72; Q 4.52; W 2.93; F 3.59; C 3.94; M 3.98; A 5.21; H 3.36; R 4.15
S8: A 4.01; D 3.98; W 2.65; Q 3.27; P 3.73; F 2.76; R 3.89; K 3.4; H 3.82; G 3.93; I 3.14; N 3.82; V 3.51; T 3.55; C 2.89; Y 3.49; E 3.82
I12: G 4.59; A 4.19; M 3.79; K 4.04; T 3.42; L 4.04; V 4.5; E 3.56; S 4.57; D 4.21; F 3.52; H 3.51; N 3.09; Y 3.61; Q 4.27
L1: K 3.7; Q 4.4; A 3.1; N 3.75; I 3.38; G 3.96; D 4.53; R 3.77; F 2.73; V 3.97; H 3.94; S 3.55; W 4.43; E 3.99; P 3.44; Y 2.65; M 3.52
A6: F 2.6; G 3.47; E 3.56; R 3.17; I 3.93; T 3.27; M 3.3; W 3.94; H 4.33; C 3.37; D 3.75; K 4.68; S 4.02; Y 3.29; N 3.12; P 3.8; V 3.81
P16: A 2.92; T 3.91; F 4.36; W 2.9; H 3.8; K 4.19; D 4.05; M 3.98; N 4.1; V 3.29; R 3.39; Q 4.22; L 3.37; C 2.59; Y 2.97
Q3: W 2.23; K 4.1; N 3.55; E 3.68; H 3.95; P 4.9; R 3.23; T 3.58; D 3.97; I 3.11; M 2.96; C 3.18; F 2.9; Y 3.24; V 2.81
K11: E 3.11; D 2.81; A 3.14; R 3.03; G 2.27; P 3.6; N 4.26; L 1.76; T 3; S 3.79; I 3.03; M 3.12; W 2.76; C 2.79; V 2.04; H 2.72; Q 3.9; F 2.44; Y 2.64
S9: F 2.36; H 3.71; T 3.8; A 3.07; N 3; R 2.99; Y 3.9; P 3.49; G 2.64; M 2.57; E 2.93; C 3.86; K 3.78; I 3; W 2.96; L 3.4; D 3.7; Q 2.65
Q7: E 3.52; R 3.5; V 2.76; G 3.58; C 3.71; P 3.15; N 4.07; L 2.8; W 3.84; H 4.53; F 2.88; T 3.99; A 4.11; S 3.77; Y 3.24; I 2.74; M 2.99; K 3.47; D 3.88
L13: I 4.08; A 4.87; P 3.97; F 4.09; C 4.67; H 5.52; E 4.24; S 4.5; Q 4.1; Y 4.25; D 4.5; G 4.65; R 4.71; K 4.65; T 4.51; M 4.74; N 4.63
C15: D 5.58; M 4.64; E 5.1; Q 4.96; W 4.47; P 4.96; G 5.51; R 4.43; H 4.74; T 5.05; S 4.98; L 3.9; K 4.65; N 5.22; F 4.16; I 3.77; Y 4.39
S2: I 1.9; H 3.43; P 4.26; M 3.58; K 3.14; Q 4.06; A 2.6; Y 3.63; R 3.7; T 3.71; F 2.96; D 5.08; E 4
M4: I 3.82; Y 3.76; C 4.13; A 4.66; E 3.94; S 4.08; V 2.81; G 3.2; R 3.92; F 3.26; N 3.6; L 4.22; P 4.94
G5: M 2.95; V 3.13; F 3.22; H 3.14; P 2.76; Q 3.92; T 3.7; I 2.98; Y 2.9; D 3.49; C 3.92; R 3.32; S 3.05; A 3.49; N 3.39; L 3.27; K 3.87
L17: A 3.63; C 3.76; F 3.23; K 3.6; G 4.13; H 3.79; D 4.97
